Reference: PMC3915908 (Cell Research, 2013)

T1: C-terminal domain of Pat1 (Pat1C), wild type (S. cerevisiae, UniProt P25644 422-796)
T1 sequence: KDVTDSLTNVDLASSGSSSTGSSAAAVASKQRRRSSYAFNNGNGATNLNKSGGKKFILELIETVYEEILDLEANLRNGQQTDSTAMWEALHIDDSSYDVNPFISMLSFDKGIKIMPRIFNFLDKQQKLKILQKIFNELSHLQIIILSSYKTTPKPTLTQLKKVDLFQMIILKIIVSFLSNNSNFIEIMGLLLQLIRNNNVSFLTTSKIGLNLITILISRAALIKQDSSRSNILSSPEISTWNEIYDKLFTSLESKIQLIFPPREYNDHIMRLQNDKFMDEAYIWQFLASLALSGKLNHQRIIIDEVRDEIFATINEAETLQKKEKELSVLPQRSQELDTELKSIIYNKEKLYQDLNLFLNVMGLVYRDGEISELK

B1: Lsm2 (natural protein)
chain: MLFFSFFKTLVDQEVVVELKNDIEIKGTLQSVDQFLNLKLDNISCTDEKKYPHLGSVRNIFIRGSTVRYVYLNKNMVDTNLLQDATRREVMTERK
B2: Lsm2-3 subcomplex, wild type (complex)
chain 1: B1 chain
chain 2: METPLDLLKLNLDERVYIKLRGARTLVGTLQAFDSHCNIVLSDAVETIYQLNNEELSESERRCEMVFIRGDTVTLISTPSEDDDGAVEI

How the values were obtained:
[1] = molecular target: T1, C-terminal domain of Pat1 (Pat1C), wild …; test: crystal structure
[2] = molecular target: T1, C-terminal domain of Pat1 (Pat1C), wild …; test: native gel or EMSA

Binder	binding result [1]	binding result [2]
B1	binds	
B2		binds
